# Test results reported in the supplement of paper PMC9112550, “Optimization of the antimicrobial peptide Bac7 by deep mutational scanning” (BMC Biology, 2022).
# Tested on: Escherichia coli TOP10
# Assay: shrunken log2 fold change of peptide-encoding DNA abundance (4.5 h post-induction vs induction); higher = less antimicrobial activity (less host growth inhibition)
# Conditions: time post-induction: 4.5 h; library: site-saturation at positions 5, 18, 19, 20
# 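Note: peptides expressed intracellularly from a pBAD plasmid library in pooled LB shake-flask culture, induced with 0.3% L-arabinose, DNA abundance read by NGS, three biological replicates, DESeq2 with apeglm shrinkage.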
row,Sequence,shrunken log2 fold change
1,RRIRERPPRLPRPRPRPDPNPRP,0.0422
2,RRIRTRPPRLPRPRPRPFCHPRP,0.0326
3,RRIRCRPPRLPRPRPRPFRVPRP,-0.32
4,RRIRLRPPRLPRPRPRPTRFPRP,0.42
5,RRIRHRPPRLPRPRPRPGLQPRP,0.157
6,RRIRSRPPRLPRPRPRPHSAPRP,-0.891
7,RRIRWRPPRLPRPRPRPEASPRP,0.551
8,RRIRFRPPRLPRPRPRPLCLPRP,-0.431
9,RRIRRRPPRLPRPRPRPFVIPRP,-0.0863
10,RRIRMRPPRLPRPRPRPMATPRP,0.0129
11,RRIRKRPPRLPRPRPRPRDAPRP,0.558
12,RRIRQRPPRLPRPRPRPGTQPRP,-0.152
13,RRIRCRPPRLPRPRPRPKTEPRP,-0.0486
14,RRIRWRPPRLPRPRPRPKQAPRP,0.413
15,RRIRIRPPRLPRPRPRPDACPRP,0.183
16,RRIRCRPPRLPRPRPRPHSMPRP,-0.718
17,RRIRQRPPRLPRPRPRPSIYPRP,-0.988
18,RRIRQRPPRLPRPRPRPDIRPRP,-0.154
19,RRIRVRPPRLPRPRPRPGKYPRP,-0.493
20,RRIRGRPPRLPRPRPRPWCVPRP,0.121
21,RRIRMRPPRLPRPRPRPAGGPRP,0.831
22,RRIRRRPPRLPRPRPRPIQNPRP,0.0525

row,Sequence,shrunken log2 fold change
1,RRIRNRPPRLPRPRPRPEWDPRP,-0.00515
2,RRIRGRPPRLPRPRPRPMSWPRP,0.252
3,RRIRGRPPRLPRPRPRPQANPRP,0.111
4,RRIRFRPPRLPRPRPRPMIMPRP,0.234
5,RRIRWRPPRLPRPRPRPDRAPRP,0.487
6,RRIRQRPPRLPRPRPRPGNKPRP,-0.596
7,RRIRARPPRLPRPRPRPLWQPRP,0.136
8,RRIRLRPPRLPRPRPRPIQRPRP,-0.00804
9,RRIRPRPPRLPRPRPRPIVKPRP,0.000733
10,RRIRGRPPRLPRPRPRPDLCPRP,0.445
11,RRIRDRPPRLPRPRPRPFVSPRP,0.00609
12,RRIRFRPPRLPRPRPRPNSPPRP,-0.462
13,RRIRWRPPRLPRPRPRPQGYPRP,-0.0909
14,RRIRKRPPRLPRPRPRPIHIPRP,-0.39
15,RRIRKRPPRLPRPRPRPNTTPRP,-0.0509
16,RRIRFRPPRLPRPRPRPRCSPRP,0.717
17,RRIRQRPPRLPRPRPRPKMTPRP,0.00734
18,RRIRCRPPRLPRPRPRPIPWPRP,-0.146
19,RRIRNRPPRLPRPRPRPPHWPRP,0.406
20,RRIRIRPPRLPRPRPRPFTQPRP,-0.71
21,RRIRARPPRLPRPRPRPQMHPRP,1.05
22,RRIRMRPPRLPRPRPRPIMPPRP,0.0288

row,Sequence,shrunken log2 fold change
1,RRIRMRPPRLPRPRPRPIQYPRP,0.0408
2,RRIRDRPPRLPRPRPRPKGWPRP,0.589
3,RRIRERPPRLPRPRPRPDKYPRP,-0.449
4,RRIRCRPPRLPRPRPRPGMSPRP,0.0961
5,RRIRCRPPRLPRPRPRPMQIPRP,0.0467
6,RRIRQRPPRLPRPRPRPLCSPRP,-0.0385
7,RRIRDRPPRLPRPRPRPIMWPRP,-0.00999
8,RRIRYRPPRLPRPRPRPMHDPRP,-0.598
9,RRIRVRPPRLPRPRPRPKHHPRP,-0.357
10,RRIRWRPPRLPRPRPRPEHLPRP,-0.138
11,RRIRNRPPRLPRPRPRPTVQPRP,-0.179
12,RRIRVRPPRLPRPRPRPTAKPRP,0.0848
13,RRIRKRPPRLPRPRPRPSVIPRP,-0.0922
14,RRIRRRPPRLPRPRPRPIPCPRP,0.0472
15,RRIRHRPPRLPRPRPRPDHQPRP,0.0561
16,RRIRTRPPRLPRPRPRPSGQPRP,0.0245
17,RRIRQRPPRLPRPRPRPINTPRP,-0.129
18,RRIRARPPRLPRPRPRPWPLPRP,-0.0297
19,RRIRGRPPRLPRPRPRPRLDPRP,0.692
20,RRIRLRPPRLPRPRPRPQNLPRP,-0.149
21,RRIRDRPPRLPRPRPRPAINPRP,-0.117
22,RRIRLRPPRLPRPRPRPFQIPRP,-0.109

row,Sequence,shrunken log2 fold change
1,RRIRNRPPRLPRPRPRPTWCPRP,-0.0306
2,RRIRARPPRLPRPRPRPKFQPRP,0.328
3,RRIRDRPPRLPRPRPRPYYPPRP,-0.248
4,RRIRRRPPRLPRPRPRPYKQPRP,-0.286
5,RRIRSRPPRLPRPRPRPYCRPRP,-0.512
6,RRIRHRPPRLPRPRPRPVCSPRP,-0.168
7,RRIRERPPRLPRPRPRPHRMPRP,-0.305
8,RRIRQRPPRLPRPRPRPVQRPRP,0.862
9,RRIRIRPPRLPRPRPRPYKQPRP,-0.101
10,RRIRWRPPRLPRPRPRPYRAPRP,-0.399
11,RRIRDRPPRLPRPRPRPLFKPRP,-0.221
12,RRIRRRPPRLPRPRPRPWNHPRP,-0.0953
13,RRIRVRPPRLPRPRPRPMPEPRP,-0.192
14,RRIRQRPPRLPRPRPRPSNTPRP,-0.824
15,RRIRNRPPRLPRPRPRPHHRPRP,0.0742
16,RRIRTRPPRLPRPRPRPFVPPRP,2.01
17,RRIRNRPPRLPRPRPRPLSPPRP,-0.215
18,RRIRVRPPRLPRPRPRPESEPRP,0.0921
19,RRIRNRPPRLPRPRPRPARKPRP,0.0797
20,RRIRFRPPRLPRPRPRPSVHPRP,-0.233
21,RRIRDRPPRLPRPRPRPDKIPRP,0.231
22,RRIRRRPPRLPRPRPRPTSQPRP,0.249

row,Sequence,shrunken log2 fold change
1,RRIRQRPPRLPRPRPRPPYSPRP,-0.224
2,RRIRDRPPRLPRPRPRPDSIPRP,0.0726
3,RRIRARPPRLPRPRPRPFCYPRP,0.0576
4,RRIRNRPPRLPRPRPRPLDQPRP,-0.266
5,RRIRYRPPRLPRPRPRPDHYPRP,-0.0219
6,RRIRHRPPRLPRPRPRPFIIPRP,-0.00662
7,RRIRKRPPRLPRPRPRPPMTPRP,-0.00191
8,RRIRSRPPRLPRPRPRPKCFPRP,0.318
9,RRIRVRPPRLPRPRPRPWYCPRP,-0.462
10,RRIRGRPPRLPRPRPRPMSIPRP,0.0628
11,RRIRPRPPRLPRPRPRPKMNPRP,-0.273
12,RRIRQRPPRLPRPRPRPTIPPRP,-0.205
13,RRIRKRPPRLPRPRPRPGHAPRP,0.667
14,RRIRQRPPRLPRPRPRPLAPPRP,0.38
15,RRIRMRPPRLPRPRPRPRFHPRP,0.142
16,RRIRFRPPRLPRPRPRPFMYPRP,-0.742
17,RRIRERPPRLPRPRPRPKCRPRP,-0.0625
18,RRIRSRPPRLPRPRPRPQYSPRP,-0.165
19,RRIRERPPRLPRPRPRPIDTPRP,-0.113
20,RRIRDRPPRLPRPRPRPRHGPRP,-0.0452
21,RRIRTRPPRLPRPRPRPRWGPRP,0.164
